± gives the uncertainty stated by the source.
Assay: amyloid nucleation score (Sup35N fusion, yeast selection) (log enrichment); library NNK1; higher = more nucleation; inactive = no reads after selection
Method in brief: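 Nucleation score is defined as the DiMSum log enrichment of output over input reads, with centring on the mode score of non-aggregating sequences. A minimum of 100 input reads was required for each sequence. Reads came from Illumina sequencing of plasmid inserts from psi-negative yeast expressing Sup35N fused to peptides of 20 random codons, induced with 100 μM copper sulfate for 24 hours and grown 7 days at 30°C on medium lacking adenine and uracil.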

| Substance | amyloid nucleation score |
| --- | --- |
| MMGGKDCQFYCSIPLFRVMM | 2.2 ± 0.16 |
| MMPFYHSNSR | -1.38 ± 1.1 |
| MMSSEVLPINSCIRSWANAL | -0.431 ± 0.29 |
| MNLYNRNYLYCIYRKETTTT | -0.957 ± 1.4 |
| MNVGCSVVWIKCLNACTSKQ | 6.168 ± 0.06 |
| MPCHAFAKMFVQSEFSGSVC | 0.498 ± 0.97 |
| MPCNVGMGWCRVVNWWGLYG | 0.604 ± 0.44 |
| MPKAQDALTLKNGELKRLSG | 0.295 ± 0.4 |
| MPLAKSPLTLG | 4.39 ± 0.062 |
| MQFCVEYTRPVRYQLWGSLM | 0.327 ± 0.83 |
| MQNCISLL | -0.483 ± 0.4 |
| MQSMQL | inactive |
| MQVNIVGVSILVAWPR | 6.48 ± 0.071 |
| MQWSYV | 0.32 ± 0.37 |
| MRASTFNYSYELKINVVCYT | -0.918 ± 0.53 |
| MRCISYIYEHAL | 0.567 ± 0.66 |
| MRDLK | -0.405 ± 0.53 |
| MRHGSKAWQLYRLFKYDFFW | 0.534 ± 0.9 |
| MRPVGTRFSSIP | -0.201 ± 0.55 |
| MRRCTGMLCYTIS | 0.97 ± 0.53 |
| MRTDFERHIVSYVSELCKLP | -0.162 ± 0.73 |
| MRVGIWDKMRSLRCDISAC | 0.293 ± 0.66 |

| Substance | amyloid nucleation score |
| --- | --- |
| MSDRKCKKDSRYLWRDLLPE | 0.264 ± 0.46 |
| MSFQY | -2.11 ± 1.9 |
| MSGVRYLCCL | 0.087 ± 0.58 |
| MSIAMDGYFYPSSAAPFFIT | -0.156 ± 0.42 |
| MSIVCFCW | 8.155 ± 0.047 |
| MSVEIVTIGGGF | -0.481 ± 1.4 |
| MSVVWSWMYFIKLDTFA | -0.348 ± 0.23 |
| MTAGLHQ | 3.47 ± 0.082 |
| MTEQVAANAEDWSVVGNWLV | 0.43 ± 0.5 |
| MTLRLS | 0.375 ± 0.41 |
| MTPKLVQSRT | 0.106 ± 0.91 |
| MTPTTWLYPVILTSSLS | 0.44 ± 0.84 |
| MTSAGSAWVYSYFYLGLIRK | -0.143 ± 0.53 |
| MTSCMRWAVNRYSFLLWKAN | -0.416 ± 0.29 |
| MTTHVRWFNGLMSP | inactive |
| MTYTSWMMNRFNITNSYNLV | 0.755 ± 0.97 |
| MVDMILLGRNFINKRMLCLG | 0.019 ± 0.64 |
| MVGSAVVFVLENLGVTGSWG | 0.072 ± 0.84 |
| MVIYR | -0.517 ± 0.75 |
| MVLWW | -0.231 ± 0.58 |
| MVWPFKRRRWHYGILALLDR | -1.22 ± 0.75 |
| MWAAGDNHYSNKVLSLAMVV | 0.501 ± 1 |

| Substance | amyloid nucleation score |
| --- | --- |
| MWWAHDGFRSCLRHISHADG | 0.349 ± 0.91 |
| MWYNCFMTNPGFQLSPMGSI | 0.851 ± 0.55 |
| MYFSIRDCCSYAFNSFDIYG | 5.508 ± 0.047 |
| MYGNES | -0.02 ± 0.4 |
| MYHLSGVSYMFSLCSDCRRL | 8.122 ± 0.066 |
| MYKAEICLMSLENRPLMLPF | 0.203 ± 0.44 |
| MYLVDASMSKPLIVLKSCN | 0.686 ± 1.1 |
| MYMGAPSIVVIVMLQNMKFV | 2.34 ± 0.32 |
| MYNNTALRRSEYADCH | 0.872 ± 0.8 |
| MYSKIYIFNLEFLMTYWNAL | 1.92 ± 0.3 |
| MYYDMLSCFGEVKRS | -0.183 ± 0.79 |
| NALRVV | -0.637 ± 0.68 |
| NAQWKHETHIFCSAMFVTEC | 0.878 ± 0.45 |
| NCFRTSCKSGEWLQLFIRRG | 0.275 ± 0.39 |
| NCMKLLEQRGGCLQANGF | 2.09 ± 0.15 |
| NCNLSQWLIRQPKRAVSTHT | 0.243 ± 0.33 |
| NCSDQALDLQGSMSVQKIFR | -0.533 ± 0.88 |
| NDDTLRSTKVIEHLFP | 0.698 ± 1.2 |
| NDLFMESLL | 0.025 ± 0.43 |
| NDRPMMEVGMDPTPAGVLRE | 0.276 ± 0.49 |
| NDSICIVVLS | -0.009 ± 0.84 |
| NDTFSYCSTSGDRFGT | 1.4 ± 0.24 |

| Substance | amyloid nucleation score |
| --- | --- |
| NDTSNPVTLCHFV | 0.408 ± 0.48 |
| NDWVY | 1.12 ± 0.53 |
| NDYTELEIFCNLLRLMFWVV | -0.162 ± 0.48 |
| NEHQVNEG | 0.478 ± 0.48 |
| NELWCKADVMS | inactive |
| NFCFTVFLEVNAVKMRIYF | -0.798 ± 1.1 |
| NFFVSRLISQPHLGTYYAS | inactive |
| NFGNVNFVYVTWMVAESSAC | 5.915 ± 0.057 |
| NFICLHQNNMLISPKGTATR | 0.672 ± 0.31 |
| NFLFAYVLALRLFMYSVNMW | 4.5 ± 0.054 |
| NFTICLGRSTEHPGIRFDAG | -0.207 ± 1.9 |
| NFTTVAVLRFNDNGR | 4.43 ± 0.066 |
| NGCLQRKNWLVSGSFLHFVD | -0.295 ± 0.72 |
| NGFDTKYSLEGLGYSWPMLV | 0.407 ± 0.41 |
| NGHLRSINTSSARCMPAVFT | -0.112 ± 0.53 |
| NGINSVRKDLLFYNLQR | 0.107 ± 1.1 |
| NGITLLGAVAFTVFLLYPRT | -0.215 ± 0.41 |
| NGKGFNDVVKLRSGRRWGVR | -0.111 ± 1.4 |
| NGKVYVELKEWDLRVVGSLR | 4.44 ± 0.095 |

Source: the supplement of paper PMC12042874
